The target of this data set is MdNAC83 (Malus domestica, UniProt D9ZJA0 1-255). Kind of data set: EMSA; LightShift Chemiluminescent EMSA kit (Thermo), per Fan et al. 2018; buffer, salt, pH and temperature not stated. Conditions: protein: recombinant, tags: His (pET-32a), chain copies: 2, blunt. Background: A gel shift assay detects complexes by their altered migration in electrophoresis.
MdNAC83, sequence (D9ZJA0 entry or part of it): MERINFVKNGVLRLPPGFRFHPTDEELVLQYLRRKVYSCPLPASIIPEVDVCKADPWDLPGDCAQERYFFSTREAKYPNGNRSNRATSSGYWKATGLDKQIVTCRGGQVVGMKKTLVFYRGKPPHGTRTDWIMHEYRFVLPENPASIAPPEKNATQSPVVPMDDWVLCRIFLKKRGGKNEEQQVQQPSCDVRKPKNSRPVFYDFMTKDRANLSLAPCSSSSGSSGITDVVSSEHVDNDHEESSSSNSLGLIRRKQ

B1: MdMANA3 promoter probe (MdMAN3-F/R) (dsDNA)
DNA 1: GGTTAATTTTCTCAATTTCGTATTGATTTACTCTTGTACT
DNA 2: AGTACAAGAGTAAATCAATACGAAATTGAGAAAATTAACC
For B1, the binding result ((LightShift kit; MdMAN3-HotF)) is recorded as “binds”.

B2: MdXTH28 promoter probe (MdXH28-F/R) (dsDNA)
DNA 1: CCGTCCAAACCAGTAAACACGTAATTATAATCTCATTTAT
DNA 2: ATAAATGAGATTATAATTACGTGTTTACTGGTTTGGACGG
As for B2, the binding result ((LightShift kit)) was “binds”.

B3: MdACO1 promoter probe (MdACO1-F/R) (dsDNA)
DNA 1: TTGGTAGGGGTCCATCAGGACGTGCTTACTGTTCCCTACT
DNA 2: AGTAGGGAACAGTAAGCACGTCCTGATGGACCCCTACCAA
As for B3, the binding result ((LightShift kit; MdACO1-HotF)) is given as “binds”.

Source of the values: paper PMC12782892, “Natural variations in MdBPM2/MdRGLG3‐MdNAC83 network controlling the quantitative segregation of apple fruit storability”.
